The values that follow come from the supplement of paper PMC10567573.

B1: KCNA4 (parent)
chain: YQSGGRLKRPVNVPFDIFTEEVKF
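Note: lentivirally expressed fusions sorted by FACS into six bins by GFP to DsRed ratio, PSI derived from sequencing read proportions per bin multiplied by bin number.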

This data set covers variants of B1. The data set is described as follows: protein stability index of a GFP-peptide fusion (GPS, HEK-293T) (PSI 1-6); higher = more stable. The following applies: c terminus: a fixed tail appended.
On to YQSGGRLKRPYNVPFDIFTEEVKF, for which the protein stability index amounted to 2.06. Next, YQSGGRLKRPENVPFDIFTEEVKF: 1.65; YQSGGRLKRPVNVPFDIFTEEVRF: 1.96. The figure for YQSGGRLKRPVNVPFDIFTEEVFF is 2.99; for YQSGGRLKRPVNVPFDIFTEEVVF it is 2.42.

For the variant YQSGGRLKRPVNVPFDIFTEEVTF, the protein stability index was 2.36.

On to YQSGGRLKRPVNVPFDIFTEEVIF, for which the protein stability index turned out to be 2.65. Next, YQSGGRLKRPVNVPFDIFTEEVYF: 1.52; YQSGGRLKRPVNVPFDIFTEEVMF: 2.17; YQSGGRLKRPVNVPFDIFTEEVCF: 2.33.

With YQSGGRLKRPVNVPFDIFTEEVPF, the protein stability index is 1.44. The figure for YQSGGRLIRPVNVPFDIFTEEVKF is 2.47; for YQSGGRLWRPVNVPFDIFTEEVKF it is 5.95; for YQSGGRLKRPVNVPFDIFHEEVKF it is 2.83. Next, YQSGGRLKRPVNVPFDIFKEEVKF: 2.66. Next, YQSGGRLKRPVNVPFDIFEEEVKF: 1.92.

For the variant YQSGGRLKRPVNVPFDIFQEEVKF, the protein stability index came out at 1.42. The figure for YQSGGRLKRPVNVPFDIFNEEVKF is 2.33; for YQSGGRLKRPVNVPFDIFDEEVKF it is 2.38. The figure for YQSGGRLKRPVNVPFDIFPEEVKF is 1.53; for YQSGGRLKRPVNVPFDIFCEEVKF it is 1.46.

Regarding YQSGGRLKRPVNVPFDIFYEEVKF, the protein stability index was determined as 2.16. Next, AQSGGRLKRPVNVPFDIFTEEVKF: 2.82; KQSGGRLKRPVNVPFDIFTEEVKF: 2.88; QQSGGRLKRPVNVPFDIFTEEVKF: 3.33. Next, SQSGGRLKRPVNVPFDIFTEEVKF: 3. The figure for NQSGGRLKRPVNVPFDIFTEEVKF is 3.04; for MQSGGRLKRPVNVPFDIFTEEVKF it is 2.69; for DQSGGRLKRPVNVPFDIFTEEVKF it is 3.12. In the case of EQSGGRLKRPVNVPFDIFTEEVKF, the protein stability index stood at 3.08. The figure for TQSGGRLKRPVNVPFDIFTEEVKF is 2.88; for YQSGGELKRPVNVPFDIFTEEVKF it is 1.63. Next, YQSGGILKRPVNVPFDIFTEEVKF: 1.63; YQSGGHLKRPVNVPFDIFTEEVKF: 2.14.

Take YQSGGDLKRPVNVPFDIFTEEVKF: the protein stability index was found to be 2.23. For the variant YQSGGSLKRPVNVPFDIFTEEVKF, the protein stability index came out at 1.45. Next, YQSGGNLKRPVNVPFDIFTEEVKF: 2.16; YQSGGPLKRPVNVPFDIFTEEVKF: 1.85; YQSGGTLKRPVNVPFDIFTEEVKF: 2.5. Next, YQSGGVLKRPVNVPFDIFTEEVKF: 1.77; YQSGGRLKRPVNVPFVIFTEEVKF: 1.55.

Take YQSGGRLKRPVNVPFYIFTEEVKF: the protein stability index came out at 2.11. The figure for YQSGGRLKRPVNVPFKIFTEEVKF is 1.57; for YQSGGRLKRPVNVPFHIFTEEVKF it is 1.08; for YQSGGRLKRPVNVPFWIFTEEVKF it is 2.98. Next, YQSGRRLKRPVNVPFDIFTEEVKF: 1.8.

On to YQSGHRLKRPVNVPFDIFTEEVKF, for which the protein stability index amounted to 3.03. The figure for YQSGARLKRPVNVPFDIFTEEVKF is 2.32; for YQSGMRLKRPVNVPFDIFTEEVKF it is 1.77; for YQSGKRLKRPVNVPFDIFTEEVKF it is 2.14. Consider YQSGTRLKRPVNVPFDIFTEEVKF, for which the protein stability index turned out to be 2.7. Next, YQSGGRLKRPVNVPFDIFTGEVKF: 1.57; YQSGGRLKRPVNVPFDIFTNEVKF: 2.12. Next, YQSGGRLKRPVNVPFDIFTCEVKF: 2.11.

Consider YQSGGRLKRPVNVPFDIFTDEVKF, for which the protein stability index was 2.57. Next, YQSGGRLKRPVNVPFDIFTQEVKF: 1.44; YQSGGRLKRPVNVPFDIFTREVKF: 1.31; YQSGGRLKRPVNVPFDIFTPEVKF: 2.11.

For the variant YQSGGRLKRPVNVPFDIFTHEVKF, the protein stability index was 1.43. Next, YQSGGRLKRPVNIPFDIFTEEVKF: 1.75. Regarding YQSGGRLKRPVNPPFDIFTEEVKF, the protein stability index was 1.53. The figure for YQSGGRLKRPVNKPFDIFTEEVKF is 2; for YQSGGRLKRPVNYPFDIFTEEVKF it is 1.88. The figure for YQSGGRLKRPVNDPFDIFTEEVKF is 1.55; for YQSGGRLKRPVNRPFDIFTEEVKF it is 2.25. Next, YQSGGRLKRPVNVQFDIFTEEVKF: 3.33. In the case of YQSGGRLKRPVNVDFDIFTEEVKF, the protein stability index is 2.28. The figure for YQSGGRLKRPVNVAFDIFTEEVKF is 1.37; for YQSGGRLKRPVNVSFDIFTEEVKF it is 1.9; for YQSGGRLKRPVNVYFDIFTEEVKF it is 2.7. As for YQSGGRLKRPVNVKFDIFTEEVKF, the protein stability index amounted to 1.71. The figure for YQSGGRLKRPVNVVFDIFTEEVKF is 1.56; for YQSGGRLKRPVNVHFDIFTEEVKF it is 1.86; for YQSGGRLKRPVNVRFDIFTEEVKF it is 2.19. The figure for YQSGGRLKRPVNVEFDIFTEEVKF is 1.42. Next, YQSGGRLKRPVNVLFDIFTEEVKF: 1.91; YQSGGRLKRPVNVPFDQFTEEVKF: 1.72. With YQSGGRLKRPVNVPFDTFTEEVKF, the protein stability index is 2.89. Next, YQSGGRLKRPVNVPFDKFTEEVKF: 2.04; YQSGGRLKRPVNVPFDHFTEEVKF: 1.98; YQSGGRLKRPVNVPFDGFTEEVKF: 1.91. Regarding YQSGGRLKRPVNVPFDEFTEEVKF, the protein stability index was determined as 2.15. The figure for YQSGGRLKRPVNVPFDCFTEEVKF is 3.62; for YQSGGRLKRPVNVPFDMFTEEVKF it is 1.91; for YQSGGRLKRPVNVPFDLFTEEVKF it is 2.36. Next, YQSGGRLKRRVNVPFDIFTEEVKF: 1.01; YQSGGRLKRWVNVPFDIFTEEVKF: 1.14. The figure for YQSGGRLKRVVNVPFDIFTEEVKF is 2.31; for YQSGGRLKRHVNVPFDIFTEEVKF it is 1.93. Regarding YQSGGRLKRSVNVPFDIFTEEVKF, the protein stability index turned out to be 1.97. The figure for YQSGGRLKRGVNVPFDIFTEEVKF is 1.53. The figure for YQSGGRLKRYVNVPFDIFTEEVKF is 1.93; for YQSGGRLKRNVNVPFDIFTEEVKF it is 1.94. Next, YQSGGRLKRTVNVPFDIFTEEVKF: 1.79.
